Target: CK2β (Homo sapiens, UniProt P67870)
Assay: ITC

Chain of CK2β (P67870 2-215): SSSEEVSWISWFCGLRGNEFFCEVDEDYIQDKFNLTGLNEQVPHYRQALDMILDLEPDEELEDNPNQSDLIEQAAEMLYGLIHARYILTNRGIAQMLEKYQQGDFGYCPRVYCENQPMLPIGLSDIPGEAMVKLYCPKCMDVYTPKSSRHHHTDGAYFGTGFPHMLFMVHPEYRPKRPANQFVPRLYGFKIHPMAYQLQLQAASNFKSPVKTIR

- Kd: 9 nM
B1: CK2α (protein)
chain: MSGPVPSRARVYTDVNTHRPREYWDYESHVVEWGNQDDYQLVRKLGRGKYSEVFEAINITNNEKVVVKILKPVKKKKIKREIKILENLRGGPNIITLADIVKDPVSRTPALVFEHVNNTDFKQLYQTLTDYDIRFYMYEILKALDYCHSMGIMHRDVKPHNVMIDHEHRKLRLIDWGLAEFYHPGQEYNVRVASRYFKGPELLVDYQMYDYSLDMWSLGCMLASMIFRKEPFFHGHDNYDQLVRIAKVLGTEDLYDYIDKYNIELDPRFNDILGRHSRKRWERFVHSENQHLVSPEALDFLDKLLRYDHQSRLTAREAMEHPYFYTVVKDQARMGSSSMPGGSTPVSSANMMSGISSVPTPSPLGPLAGSPVIAAANPLGMPVPAAAGAQQ

From article PMC6530537 (2019)
